B1: Azoarcus group I ribozyme (parent)
chain: GUGCCUUGCGCCGGGAAACCACGCAAGGGAUGGUGUCAAAUUCGGCGAAACCUAAGCGCCCGCCCGGGCGUAUGGCAACGCCGAGCCAAGCUUCGGCGCCUGCGCCGAUGAAGGUGUAGAGACUAGACGGCACCCACCUAAGGCAAACGCUAUGGUGAAGGCAUAGUCCAGGGAGUGGCGAAAGUCACACAAACCGG

Variants of: B1
Test: reverse-splicing fitness (ratio to wild type); higher = more active; in vitro selection; Mg2+ level not given
In short: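 An in vitro group I ribozyme library with randomized positions was T7-transcribed and gel-purified. In triplicate, 10 pmol RNA in EPPS pH 7.5 was reacted with 50 pmoles of a 30-nt RNA substrate for 1 h at 37 °C across several added MgCl2 levels (1–48 mM), then stopped with EDTA. Products were reverse transcribed from a substrate-complementary primer, PCR-amplified and sequenced (HiSeq 4000). Fitness is a variant's read proportion after selection over that before, normalised to wild type.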

Row | Variant | reverse-splicing fitness
1 | A111G A120G C150A C169U U176C | 0.0286
2 | A111G A120G C150A C169U U176G | 0.00819
3 | A111G A120G C150A C169U U176A | 0.0272
4 | A111G A120U A145G C150G C169A U176G | 0.00395
5 | A111G A120U A145G C150G C169A U176A | 0.00856
6 | A111G A120U A145G C150G C169A U176C | 0.00599
7 | A111G A120G C150G C169A U176A | 0.00862
8 | A111G A120G C150G C169A U176G | 0.00604
9 | A111G A120G C150G C169A U176C | 0.0116
10 | A111G A120G A145U U176A | 0.0829
11 | A111G A120G A145U U176G | 0.00952
12 | A111G A120G A145U U176C | 0.116
13 | A111G A120U A145G C150A C169U U176A | 0.00579
14 | A111G A120U A145G C150A C169U U176C | 0.00673
15 | A111G A120U A145G C150A C169U U176G | 0.00242
16 | A111G A120G C150G C169U U176G | 0.00593
17 | A111G A120G C150G C169U U176C | 0.0166
18 | A111G A120G C150G C169U U176A | 0.0138
19 | A111G A120G C150U C169U | 0.142
20 | A111G A120G C150U C169A | 0.0914
21 | A111G A120G C150U C169G | 0.177

Row | Variant | reverse-splicing fitness
22 | A111G A120U A145C C150U C169U | 0.0277
23 | A111G A120U A145C C150U C169A | 0.0024
24 | A111G A120U A145C C150U C169G | 0.0196
25 | A111G A120U A145C C150A C169U U176A | 0.00311
26 | A111G A120U A145C C150A C169U U176C | 0.00268
27 | A111G A120U A145C C150A C169U U176G | 0.00197
28 | A111G A120G C169G U176G | 0.00692
29 | A111G A120G C169G U176A | 0.09
30 | A111G A120G C169G U176C | 0.119
31 | A111G A120G U176C | 0.117
32 | A111G A120G U176G | 0.0093
33 | A111G A120G U176A | 0.0836
34 | A111G A120U A145C C169A U176A | 0.00226
35 | A111G A120U A145C C169A U176G | 0.0014
36 | A111G A120U A145C C169A U176C | 0.0018
37 | A111G A120G C150U | 0.156
38 | A111G A120G C150A | 0.0324
39 | A111G A120G C150G | 0.0248
40 | A111G A120U A145C C150A C169G U176C | 0.00181
41 | A111G A120U A145C C150A C169G U176A | 0.00272
42 | A111G A120U A145C C150A C169G U176G | 0.00195

Row | Variant | reverse-splicing fitness
43 | A111G A120G C150A C169A U176A | 0.0205
44 | A111G A120G C150A C169A U176C | 0.0244
45 | A111G A120G C150A C169A U176G | 0.00486
46 | A111G A120U A145C C150G C169G | 0.0104
47 | A111G A120U A145C C150G C169A | 0.00293
48 | A111G A120U A145C C150G C169U | 0.014
49 | A111G A120U A145G C150U C169A | 0.00841
50 | A111G A120U A145G C150A C169U | 0.0188
51 | A111G A120U A145G C150A C169A | 0.00596
52 | A111G A120U A145G C150A C169G | 0.0141
53 | A111G A120U A145C C169G U176G | 0.00205
54 | A111G A120U A145C C169G U176C | 0.00699
55 | A111G A120U A145C C169G U176A | 0.00876
56 | A111G A120U A145G C150U | 0.611
57 | A111G A120U A145G C150A | 0.148
58 | A111G A120U A145G C150G | 0.0771
59 | A111G A120U A145C C150A C169A U176C | 0.00206
60 | A111G A120U A145C C150A C169A U176A | 0.00282
61 | A111G A120U A145C C150A C169A U176G | 0.00177
62 | A111G A120U A145C C169A | 0.00532
63 | A111G A120U A145C C169U | 0.12

Row | Variant | reverse-splicing fitness
64 | A111G A120U A145C C169G | 0.0842
65 | A111G A120G C150A C169G U176A | 0.0259
66 | A111G A120G C150A C169G U176G | 0.00566
67 | A111G A120G C150A C169G U176C | 0.0343
68 | A111G A120G C150A U176C | 0.0301
69 | A111G A120G C150A U176A | 0.0188
70 | A111G A120G C150A U176G | 0.00663
71 | A111G A120U A145C C150A U176A | 0.0179
72 | A111G A120U A145C C150A U176G | 0.00839
73 | A111G A120U A145C C150A U176C | 0.00924
74 | A111G A120G C150U C169G U176C | 0.0735
75 | A111G A120G C150U C169G U176G | 0.00531
76 | A111G A120G C150U C169G U176A | 0.0529
77 | A111G A120U A145C U176A | 0.332
78 | A111G A120U A145C U176C | 0.214
79 | A111G A120U A145C U176G | 0.131
80 | A111G A120U A145C C150A C169A | 0.00208
81 | A111G A120U A145C C150A C169G | 0.0049
82 | A111G A120U A145C C150A C169U | 0.00746
83 | A111G A120U A145C C150U C169A U176C | 0.00228
